# In patent EP1731161A1:
# Biological target: tumor necrosis factor alpha (TNFα) (rat) (UniProt P16599)
# Test: cell-based or functional assay
# UniProt P16599, sequence (P16599 80-235 limits assumed): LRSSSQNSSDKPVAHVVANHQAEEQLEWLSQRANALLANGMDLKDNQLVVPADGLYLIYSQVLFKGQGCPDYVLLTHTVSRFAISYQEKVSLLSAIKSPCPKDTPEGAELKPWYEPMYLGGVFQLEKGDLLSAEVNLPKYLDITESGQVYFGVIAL
substance,measurement,value
TNFRII:Fc receptor fragment (from UniProt P20333 23-257) (Fc fusion),SPH release from hypoxic (5 hrs) adult rat cardiomyocytes after pretreatment with TNFRII:Fc (fold reduction),3
